Here are results for one molecule from patent publication US20160106861A1, “AXL ANTIBODY-DRUG CONJUGATE AND ITS USE FOR THE TREATMENT OF CANCER” (PIERRE FABRE MEDICAMENT, priority 2013, published 2016).

This assay has as its target T1, rhAxl-Fc protein (Homo sapiens, UniProt P30530).
T1 construct: purchased R and D Systems 154AL/CF
T1 sequence (P30530 26-451 limits assumed): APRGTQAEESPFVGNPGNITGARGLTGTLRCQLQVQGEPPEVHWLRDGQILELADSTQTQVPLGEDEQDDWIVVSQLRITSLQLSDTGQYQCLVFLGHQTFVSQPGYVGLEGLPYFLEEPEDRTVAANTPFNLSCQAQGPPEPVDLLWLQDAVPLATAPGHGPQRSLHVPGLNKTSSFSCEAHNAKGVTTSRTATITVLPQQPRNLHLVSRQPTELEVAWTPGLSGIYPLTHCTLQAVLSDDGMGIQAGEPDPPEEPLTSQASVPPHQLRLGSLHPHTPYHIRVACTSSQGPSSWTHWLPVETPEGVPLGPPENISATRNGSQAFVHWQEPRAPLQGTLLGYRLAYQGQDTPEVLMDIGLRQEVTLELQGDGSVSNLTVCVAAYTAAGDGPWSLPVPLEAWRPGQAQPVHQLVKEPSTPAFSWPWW
As to the kind of experiment: ELISA with coated 1613F12 and a range of rhAxl-Fc protein (hz vs. m). The assay is classed as binding. The following applies: FIG. 3. The protocol: In this assay, 96 well plates (Immulon II, Thermo Fisher) were coated with a 5 μg/ml of 1613F12 solution in 1×PBS, overnight at 4° C. After a saturation step, a range of rh Axl-Fc protein (R and D Systems, ref: 154-AL) is incubated for 1 hour at 37° C. on the coated plates. For the revelation step, a biotinylated-Axl antibody (in house product) was added at 0.85 μg/ml for 1 hour at 37° C. This Axl antibody belongs to a distinct epitopic group. Then an avidin-horseradish peroxidase solution at 1/2000° in diluent buffer is added to the wells. Then the TMB substrate solution is added for 5 min. After addition of the peroxydase stop solution, the absorbance at […] was measured with a microplate reader.

B1: hz1613F12: humanized Axl antibody 1613F12 (antibody, V domains shown)
VH: QVQLVQSGAEVKKPGASVKVSCKASGFNIRDTYMHWVRQAPGQGLEWMGRLDPANGHTKYAQKFQGRVTMTRDTSISTAYMELSRLRSDDTAVYYCARGAYYYGSSGLFYFDYWGQGTLVTVSS
VL: DVQMTQSPSSLSASVGDRVTITCRASKSISKYLAWYQQKPGKVPKLLIYSGSTLQSGVPSRFSGSGSGTDFTLTISSLQPEDVATYYCQQHHEYPLTFGGGTKVEIK
modifications: Hz1613F12 VH - Consensus 2; Hz1613F12 VL - Consensus 2
notes: humanized Axl antibody 1613F12
As to B1, the “binding of rhAxl-Fc protein, murine versus humanized version” value was “bind similarly the rhAxl-Fc protein”.
